Experimental data as given in paper PMC5564213.

Molecular target: methemoglobin (UniProt P69905)
Assay: ELISA

Substance	percent loss of hemoglobin binding against the untreated sample	EC50
DEPC-treated wild-type ShuA further treated with hydroxylamine (from UniProt P72412 1-660) (natural protein)	40%	–
purified ShuA Ala-L11 (non-phage-displayed) (from UniProt P72412 1-660) (natural protein)	–	530 nM
purified ShuA H86A/H420A (non-phage-displayed) (natural protein)	–	6900 nM
purified wild-type ShuA (non-phage-displayed) (from UniProt P72412) (natural protein; other documents disagree on this pair)	–	530 nM
DEPC-treated wild-type ShuA (from UniProt P72412 1-660) (natural protein)	60%	–
